{"source": "paper PMC5366329", "key": {"[1]": {"biological_target": "N-terminal 6xHis-tagged HsCPAP^897−1338 (human) (UniProt Q9HC77)", "experiment": "SEC + other: negative-stain electron microscopy (single particle, 3D map); SEC (Superdex 200 10/300) peak fraction at an apparent MW of ~208 kDa, buffer H-300 (300 mM NaCl), 4°C; barrel-like particles, 23 Å map; putative tetramer (dimer of dimers)"}, "[2]": {"biological_target": "N-terminal 6xHis-tagged HsCPAP^897−1338 (human) (UniProt Q9HC77)", "experiment": "SEC + other: negative-stain electron microscopy (single particle, 3D map); SEC (Superdex 200 10/300) fraction at an apparent MW of ~108 kDa, buffer H-300 (300 mM NaCl), 4°C; toroidal particles, 20 Å map from 4,587 particles; monomers to putative dimer"}}}
{"substance": "N-terminal 6xHis-tagged HsCPAP^897−1338 (from UniProt Q9HC77 897-1338) (domain or fragment)", "values": [{"measurement": "stoichiometry N", "setting": "[1]", "value": 4}, {"measurement": "stoichiometry N", "setting": "[2]", "value": 2}]}
